Data: patent US20210318312A1 (TRUSTEES OF PRINCETON UNIVERSITY, published 2021)

T1: dihydrolipoyllysine acetyltransferase (DLAT), endogenous (human, UniProt P10515 87-647, lipoyl-lysine at K132 and K259)
T1 construct: Endogenous protein in mitochondrial lysates of MRC5 cells; also called E2 component of the PDHC
T1 sequence (looked up): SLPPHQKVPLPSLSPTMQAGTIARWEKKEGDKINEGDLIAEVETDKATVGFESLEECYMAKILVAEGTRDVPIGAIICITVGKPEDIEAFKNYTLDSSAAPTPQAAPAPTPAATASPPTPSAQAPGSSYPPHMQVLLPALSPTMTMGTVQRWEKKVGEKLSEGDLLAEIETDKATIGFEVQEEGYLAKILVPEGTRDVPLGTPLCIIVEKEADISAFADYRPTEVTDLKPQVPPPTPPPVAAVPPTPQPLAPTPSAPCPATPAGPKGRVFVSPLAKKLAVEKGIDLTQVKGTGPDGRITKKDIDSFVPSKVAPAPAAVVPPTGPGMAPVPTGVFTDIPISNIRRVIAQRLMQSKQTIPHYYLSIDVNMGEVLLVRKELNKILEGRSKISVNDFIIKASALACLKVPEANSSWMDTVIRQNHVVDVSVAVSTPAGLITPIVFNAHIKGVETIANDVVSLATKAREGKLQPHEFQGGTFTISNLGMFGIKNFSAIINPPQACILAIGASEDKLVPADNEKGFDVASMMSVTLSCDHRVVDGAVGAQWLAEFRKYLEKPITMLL

T2: PDH component X (PDHX), endogenous (human, UniProt O00330 54-501)
T2 construct: Endogenous protein in mitochondrial lysates of MRC5 cells
T2 sequence (looked up): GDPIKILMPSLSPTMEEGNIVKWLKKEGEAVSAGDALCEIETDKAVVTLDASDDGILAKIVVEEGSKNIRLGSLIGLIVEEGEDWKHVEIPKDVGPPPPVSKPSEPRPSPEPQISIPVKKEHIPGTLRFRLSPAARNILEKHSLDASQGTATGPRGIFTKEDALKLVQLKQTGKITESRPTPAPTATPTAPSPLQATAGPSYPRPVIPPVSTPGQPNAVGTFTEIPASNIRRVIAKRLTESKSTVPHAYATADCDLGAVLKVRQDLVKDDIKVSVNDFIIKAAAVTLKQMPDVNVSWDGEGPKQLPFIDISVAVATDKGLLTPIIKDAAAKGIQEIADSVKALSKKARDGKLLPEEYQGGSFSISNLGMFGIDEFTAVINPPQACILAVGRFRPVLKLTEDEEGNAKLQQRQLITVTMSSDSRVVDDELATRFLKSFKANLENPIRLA

T3: SIRT3, endogenous (human, UniProt Q9NTG7 102-399, limits assumed)
T3 sequence (looked up): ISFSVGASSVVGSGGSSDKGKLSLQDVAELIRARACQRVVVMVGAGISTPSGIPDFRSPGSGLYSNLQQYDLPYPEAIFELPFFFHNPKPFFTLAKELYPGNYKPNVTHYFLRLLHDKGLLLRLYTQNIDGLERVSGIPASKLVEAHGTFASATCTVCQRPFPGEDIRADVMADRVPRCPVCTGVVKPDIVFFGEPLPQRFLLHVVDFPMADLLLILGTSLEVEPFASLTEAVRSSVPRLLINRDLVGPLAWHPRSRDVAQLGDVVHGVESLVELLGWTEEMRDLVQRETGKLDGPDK


Key:
[1] = target: T1, dihydrolipoyllysine acetyltransferase …; assay: anti-GFP immunoaffinity purification from MRC5 mitochondria, western blot; confocal co-localization
Procedure: (§1) Western Immunoblotting. 10 μg of protein from each fraction was resuspended in L SDS Sample Buffer. Each sample was subjected to SDS-PAGE, transferred to nitrocellulose membranes (GE Healthcare Life Sciences, cat. #45-000-929), and blocked in blocked in 5% (w/v) skim milk powder in Tris-buffered saline with 0.05% (v/v) Tween-20 (TBST) for 1 hr at RT. Membranes were probed according to manufacturer's instructions, with the following primary antibodies: mouse anti-GFP (Roche, cat. #11814460001), rabbit anti-LAMP1 (Abcam, cat. #ab24170), rabbit anti-COXIV (Cell Signaling Technology, cat. #4844), rabbit anti-DLAT (Santa Cruz Biotechnology, cat. #sc-32925), or rabbit anti-PDHX (Santa Cruz Biotechnology, sc-98752), for 1 h in TBST, followed by 1 hr incubation in corresponding horseradish peroxidase (HRP)-conjugated secondary antibodies (Jackson ImmunoResearch Laboratories). All antibody incubations were carried out at RT with gentle agitation, and blots washed three times with TBST for 10 min after each incubation. Immuno-targets were detected using ECL (GE Healthcare Life Sciences, cat. #RPN2106).
(§2) Immunoaffinity Purification. SIRT4-EGFP and control EGFP immunoaffinity purifications (IPs) from MRC5 cells were performed using M270 Epoxy Dynabeads (Invitrogen, cat. #14302D) coupled with in-house generated rabbit anti-GFP polyclonal antibodies, as described previously²⁹. […]

[2] = target: T2, PDH component X (PDHX), endogenous; assay: as above
Procedure: as §1, §2

[3] = target: T3, SIRT3, endogenous; assay: immunoaffinity purification of SIRT4-EGFP from MRC5 mitochondria with mass spectrometry (IP-MS), SAINT scoring
Procedure: Immunoaffinity Purification. SIRT4-EGFP and control EGFP immunoaffinity purifications (IPs) from MRC5 cells were performed using M270 Epoxy Dynabeads (Invitrogen, cat. #14302D) coupled with in-house generated rabbit anti-GFP polyclonal antibodies, as described previously²⁹. Pooled mitochondria from fractions 3 and 4 from the OptiPrep™ gradient were resuspended in 1 mL optimized Lysis Buffer (20 mM HEPES-KOH, pH 7.4, 0.1 M KOAc, 2 mM MgCl₂, 0.1% Tween-20, 1 μM ZnCl₂, 1 μM CaCl2)), with 0.6% Triton X-100, 200 mM NaCl, and 1/100 (v/v) protease inhibitor cocktail (Sigma, cat. #P8340). Lysed mitochondria were vortexed three times for 20 sec each, and mixed by rotation for 10 min at 4° C. Insoluble material (pellet) was removed by centrifugation at 5000×g for 10 min. The supernatant was collected and SIRT4-EGFP or free EGFP (negative control) was immunoisolated by incubation with 7 mg of GFP-coupled magnetic beads for 60 min at 4° C. […]
To investigate potential endogenous substrates of SIRT4, proteomics was used to define its endogenous mitochondrial protein interactions. […] Using direct fluorescence microscopy (co-localization with MitoTracker, FIG. 4) and density-based organelle fractionation (co-isolation with the mitochondrial COX IV, FIG. 1a), we confirmed its mitochondrial localization. […]

[4] = target: T1, dihydrolipoyllysine acetyltransferase …; assay: reciprocal immunoaffinity purification of DLAT from wild-type fibroblasts, western blot (FIG. 1F)

Row | binding result [1] | binding result [2] | binding result [3] | binding result [4] | Binder
1 | binds | binds | no binding | – | SIRT4-EGFP (enzyme, Stably expressed in MRC5 fibroblasts and immunoisolated from mitochondrial lysate with anti-GFP beads; also called SIRT4-OE; not shown: EGFP (enhanced green fluorescent protein, ORF of pEGFP-N1), fused C-terminal of SIRT4; linker) IGLFVPASPPLDPEKVKELQRFITLSKRLLVMTGAGISTESGIPDYRSEKVGLYARTDRRPIQHGDFVRSAPIRQRYWARNFVGWPQFSSHQPNPAHWALSTWEKLGKLYWLVTQNVDALHTKAGSRRLTELHGCMDRVLCLDCGEQTPRGVLQERFQVLNPTWSAEAHGLAPDGDVFLSEEQVRSFQVPTCVQCGGHLKPDVVFFGDTVNPDKVDFVHKRVKEADSLLVVGSSLQVYSGYRFILTAWEKKLPIAILNIGPTRSDDLACLKLNSRCGELLPLIDPC
2 | – | – | – | binds | endogenous SIRT4 (enzyme, Endogenous SIRT4 of wild-type MRC5 fibroblasts) IGLFVPASPPLDPEKVKELQRFITLSKRLLVMTGAGISTESGIPDYRSEKVGLYARTDRRPIQHGDFVRSAPIRQRYWARNFVGWPQFSSHQPNPAHWALSTWEKLGKLYWLVTQNVDALHTKAGSRRLTELHGCMDRVLCLDCGEQTPRGVLQERFQVLNPTWSAEAHGLAPDGDVFLSEEQVRSFQVPTCVQCGGHLKPDVVFFGDTVNPDKVDFVHKRVKEADSLLVVGSSLQVYSGYRFILTAWEKKLPIAILNIGPTRSDDLACLKLNSRCGELLPLIDPC
